# Experimental data from the supplement of paper PMC10567573.
# B1: ZBTB22 (parent)
# chain: FSSSSQEAFAASAVGSGERRGGGP
# Variants of: B1
# Test: protein stability index of a GFP-peptide fusion (GPS, HEK-293T) (PSI 1-6); higher = more stable
# Conditions: c terminus: a fixed tail appended
# 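Also: lentivirally expressed fusions sorted by FACS into six bins by GFP to DsRed ratio, PSI derived from sequencing read proportions per bin multiplied by bin number.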
row,Variant,protein stability index
1,FSSSSQEAFKASAVGSGERRGGGP,3.2
2,FSSSSQEAFGASAVGSGERRGGGP,3.75
3,FSSSSQEAFDASAVGSGERRGGGP,5.25
4,FSSSSQEAFLASAVGSGERRGGGP,3.26
5,FSSSSQEAFRASAVGSGERRGGGP,3.33
6,FSSSSQEAFPASAVGSGERRGGGP,3.89
7,FSSSSQEAFTASAVGSGERRGGGP,3.26
8,FSSSSQEAFEASAVGSGERRGGGP,4.74
9,FSSSSQEAFSASAVGSGERRGGGP,3.22
10,FSSSSQEAFYASAVGSGERRGGGP,2.27
11,FSSSSQEAFWASAVGSGERRGGGP,2.88
12,FSSSSQEAFHASAVGSGERRGGGP,3.65
13,FSSSSQEAFNASAVGSGERRGGGP,3.97
14,FSSSSQEAFMASAVGSGERRGGGP,3.16
15,FSSSSQEAFCASAVGSGERRGGGP,2.44
16,FSSSSQEAFVASAVGSGERRGGGP,2.58
17,FSSSSQEAFIASAVGSGERRGGGP,2.44
18,FSSSSQEAFFASAVGSGERRGGGP,2.41
19,FSSSSQEAFQASAVGSGERRGGGP,4.09
20,FSSSSQDAFAASAVGSGERRGGGP,3.99
21,FSSSSQGAFAASAVGSGERRGGGP,3.12
22,FSSSSQIAFAASAVGSGERRGGGP,2.24
23,FSSSSQCAFAASAVGSGERRGGGP,1.64
24,FSSSSQKAFAASAVGSGERRGGGP,2.82

row,Variant,protein stability index
1,FSSSSQSAFAASAVGSGERRGGGP,2.57
2,FSSSSQTAFAASAVGSGERRGGGP,2.78
3,FSSSSQRAFAASAVGSGERRGGGP,2.36
4,FSSSSQQAFAASAVGSGERRGGGP,3.67
5,FSSSSQMAFAASAVGSGERRGGGP,2.37
6,FSSSSQPAFAASAVGSGERRGGGP,3.25
7,FSSSSQAAFAASAVGSGERRGGGP,2.09
8,FSSSSQNAFAASAVGSGERRGGGP,2.84
9,FSSSSQLAFAASAVGSGERRGGGP,1.55
10,FSSSSQVAFAASAVGSGERRGGGP,1.96
11,FSSSSQHAFAASAVGSGERRGGGP,2.31
12,FSSSSQYAFAASAVGSGERRGGGP,1.54
13,FSSSCQEAFAASAVGSGERRGGGP,2.79
14,FSSSEQEAFAASAVGSGERRGGGP,4.15
15,FSSSRQEAFAASAVGSGERRGGGP,3.7
16,FSSSKQEAFAASAVGSGERRGGGP,3.91
17,FSSSAQEAFAASAVGSGERRGGGP,2.71
18,FSSSNQEAFAASAVGSGERRGGGP,3.61
19,FSSSIQEAFAASAVGSGERRGGGP,3.62
20,FSSSDQEAFAASAVGSGERRGGGP,4.27
21,FSSSYQEAFAASAVGSGERRGGGP,1.95
22,FSSSTQEAFAASAVGSGERRGGGP,4.41
23,FSSSFQEAFAASAVGSGERRGGGP,2.45
24,FSSSPQEAFAASAVGSGERRGGGP,4.56

row,Variant,protein stability index
1,FSSSQQEAFAASAVGSGERRGGGP,4.35
2,FSSSMQEAFAASAVGSGERRGGGP,2.4
3,FSSSHQEAFAASAVGSGERRGGGP,2.86
4,FSSSVQEAFAASAVGSGERRGGGP,4.15
5,FSSSWQEAFAASAVGSGERRGGGP,2.87
6,FSSSLQEAFAASAVGSGERRGGGP,3.66
7,FSSSSQEAFAASAHGSGERRGGGP,3.86
8,FSSSSQEAFAASADGSGERRGGGP,4.5
9,FSSSSQEAFAASAKGSGERRGGGP,3.33
10,FSSSSQEAFAASAMGSGERRGGGP,3.25
11,FSSSSQEAFAASAFGSGERRGGGP,2.99
12,FSSSSQEAFAASAIGSGERRGGGP,2.55
13,FSSSSQEAFAASAGGSGERRGGGP,3.56
14,FSSSSQEAFAASAAGSGERRGGGP,3.76
15,FSSSSQEAFAASAPGSGERRGGGP,3.9
16,FSSSSQEAFAASANGSGERRGGGP,3.33
17,FSSSSQEAFAASALGSGERRGGGP,3.77
18,FSSSSQEAFAASAEGSGERRGGGP,3.85
19,FSSSSQEAFAASACGSGERRGGGP,3.36
20,FSSSSQEAFAAEAVGSGERRGGGP,3.58
21,FSSSSQEAFAAHAVGSGERRGGGP,2.94
22,FSSSSQEAFAANAVGSGERRGGGP,3.26
23,FSSSSQEAFAAAAVGSGERRGGGP,3.56
24,FSSSSQEAFAACAVGSGERRGGGP,2.54

row,Variant,protein stability index
1,FSSSSQEAFAAQAVGSGERRGGGP,3.71
2,FSSSSQEAFAAIAVGSGERRGGGP,2.26
3,FSSSSQEAFAAKAVGSGERRGGGP,3.68
4,FSSSSQEAFAAYAVGSGERRGGGP,1.85
5,FSSSSQEAFAAGAVGSGERRGGGP,3.61
6,FSSSSQEAFAAMAVGSGERRGGGP,2.63
7,FSSSSQEAFAALAVGSGERRGGGP,2.36
8,FSSSSQEAFAATAVGSGERRGGGP,3.02
9,FSSSSQEAFAADAVGSGERRGGGP,3.48
10,FSSSSQEAFAARAVGSGERRGGGP,2.61
11,FSSSSQEAFAAPAVGSGERRGGGP,3.36
12,FSSSSQEAFAAVAVGSGERRGGGP,2.87
13,FSSSSQEAFAAFAVGSGERRGGGP,1.47
14,FSSSSQEAYAASAVGSGERRGGGP,3.56
15,FSSSSQEADAASAVGSGERRGGGP,5.44
16,FSSSSQEAMAASAVGSGERRGGGP,4.96
17,FSSSSQEAQAASAVGSGERRGGGP,5.09
18,FSSSSQEAVAASAVGSGERRGGGP,5.24
19,FSSSSQEAHAASAVGSGERRGGGP,4.66
20,FSSSSQEACAASAVGSGERRGGGP,4.57
21,FSSSSQEALAASAVGSGERRGGGP,4.92
22,FSSSSQEARAASAVGSGERRGGGP,4.35
23,FSSSSQEAPAASAVGSGERRGGGP,4.98
24,FSSSSQEANAASAVGSGERRGGGP,4.71

row,Variant,protein stability index
1,FSSSSQEASAASAVGSGERRGGGP,5.01
2,FSSSSQEAWAASAVGSGERRGGGP,1.67
3,FSSSSQEAAAASAVGSGERRGGGP,5.51
4,FSSSSQEAKAASAVGSGERRGGGP,5.2
5,FSSSSQEAGAASAVGSGERRGGGP,4.56
6,FSSSSQEATAASAVGSGERRGGGP,5.26
7,FSSSSQEAIAASAVGSGERRGGGP,4.83
8,FSSSSQEAEAASAVGSGERRGGGP,5.92
9,FSSSSQEAFAESAVGSGERRGGGP,3.85
10,FSSSSQEAFAGSAVGSGERRGGGP,2.86
11,FSSSSQEAFANSAVGSGERRGGGP,3.88
12,FSSSSQEAFAQSAVGSGERRGGGP,3.44
13,FSSSSQEAFAMSAVGSGERRGGGP,3.4
14,FSSSSQEAFAYSAVGSGERRGGGP,3.13
15,FSSSSQEAFACSAVGSGERRGGGP,1.95
16,FSSSSQEAFASSAVGSGERRGGGP,3.88
17,FSSSSQEAFATSAVGSGERRGGGP,3.32
18,FSSSSQEAFAVSAVGSGERRGGGP,2.13
19,FSSSSQEAFADSAVGSGERRGGGP,4.39
20,FSSSSQEAFALSAVGSGERRGGGP,3.04
21,FSSSSQEAFAHSAVGSGERRGGGP,3.02
22,FSSSSQEAFAISAVGSGERRGGGP,2.32
23,FSSSSQEAFAFSAVGSGERRGGGP,2.19
24,FSSSSQEAFARSAVGSGERRGGGP,3.74

row,Variant,protein stability index
1,FSSSSQEAFAWSAVGSGERRGGGP,1.86
2,FSSSSQEAFAKSAVGSGERRGGGP,4.5
3,FSSSSMEAFAASAVGSGERRGGGP,2.85
4,FSSSSDEAFAASAVGSGERRGGGP,4.44
5,FSSSSREAFAASAVGSGERRGGGP,3
6,FSSSSSEAFAASAVGSGERRGGGP,2.49
7,FSSSSEEAFAASAVGSGERRGGGP,4.4
8,FSSSSFEAFAASAVGSGERRGGGP,2.18
9,FSSSSGEAFAASAVGSGERRGGGP,4.22
10,FSSSSAEAFAASAVGSGERRGGGP,2.74
11,FSSSSNEAFAASAVGSGERRGGGP,3.32
12,FSSSSTEAFAASAVGSGERRGGGP,2.77
13,FSSSSIEAFAASAVGSGERRGGGP,2.5
14,FSSSSVEAFAASAVGSGERRGGGP,2.6
15,FSSSSKEAFAASAVGSGERRGGGP,1.31
16,FSSSSLEAFAASAVGSGERRGGGP,2.85
17,FSSSSHEAFAASAVGSGERRGGGP,2.81
18,FSSSSYEAFAASAVGSGERRGGGP,2.13
19,FSSSSPEAFAASAVGSGERRGGGP,3.03
20,FSSSSCEAFAASAVGSGERRGGGP,3.77
21,FSSLSQEAFAASAVGSGERRGGGP,3.65
22,FSSTSQEAFAASAVGSGERRGGGP,3.29
23,FSSPSQEAFAASAVGSGERRGGGP,4.25
24,FSSRSQEAFAASAVGSGERRGGGP,2.57

row,Variant,protein stability index
1,FSSQSQEAFAASAVGSGERRGGGP,3.09
2,FSSNSQEAFAASAVGSGERRGGGP,3.52
3,FSSMSQEAFAASAVGSGERRGGGP,3.36
4,FSSWSQEAFAASAVGSGERRGGGP,1.68
5,FSSKSQEAFAASAVGSGERRGGGP,2.65
6,FSSVSQEAFAASAVGSGERRGGGP,3.87
7,FSSYSQEAFAASAVGSGERRGGGP,3.74
8,FSSSSQEIFAASAVGSGERRGGGP,2.75
9,FSSSSQEPFAASAVGSGERRGGGP,3.94
10,FSSSSQECFAASAVGSGERRGGGP,2.47
11,FSSSSQEVFAASAVGSGERRGGGP,2.11
12,FSSSSQETFAASAVGSGERRGGGP,3.46
13,FSSSSQEHFAASAVGSGERRGGGP,3.86
14,FSSSSQEDFAASAVGSGERRGGGP,5.19
15,FSSSSQEGFAASAVGSGERRGGGP,4.44
16,FSSSSQESFAASAVGSGERRGGGP,4.18
17,FSSSSQEKFAASAVGSGERRGGGP,3.79
18,FSSSSQEYFAASAVGSGERRGGGP,1.88
19,FSSSSQELFAASAVGSGERRGGGP,2.25
20,FSSSSQEQFAASAVGSGERRGGGP,4.09
21,FSSSSQEEFAASAVGSGERRGGGP,4.74
22,FSSSSQEFFAASAVGSGERRGGGP,2.55
23,FSSSSQEMFAASAVGSGERRGGGP,2.17
24,FSSSSQERFAASAVGSGERRGGGP,3.96

row,Variant,protein stability index
1,FSSSSQENFAASAVGSGERRGGGP,4.21
2,FSSSSQEAFAASSVGSGERRGGGP,3.31
3,FSSSSQEAFAASIVGSGERRGGGP,3.04
4,FSSSSQEAFAASKVGSGERRGGGP,3.36
5,FSSSSQEAFAASTVGSGERRGGGP,2.71
6,FSSSSQEAFAASNVGSGERRGGGP,2.57
7,FSSSSQEAFAASFVGSGERRGGGP,2.64
8,FSSSSQEAFAASYVGSGERRGGGP,3.26
9,FSSSSQEAFAASVVGSGERRGGGP,3.87
10,FSSSSQEAFAASCVGSGERRGGGP,2.25
11,FSSSSQEAFAASDVGSGERRGGGP,3.9
12,FSSSSQEAFAASPVGSGERRGGGP,3.43
13,FSSSSQEAFAASGVGSGERRGGGP,3.01
14,FSSSSQEAFAASLVGSGERRGGGP,3.13
15,FSSSSQEAFAASMVGSGERRGGGP,2.79
16,FSSSSQEAFAASEVGSGERRGGGP,3.93
17,FSSSSQEAFAASHVGSGERRGGGP,3.17
18,FSSSSQEAFAASRVGSGERRGGGP,3.78
19,FSSSSQEAFAASQVGSGERRGGGP,3.28
20,FSSSSQEAFAASWVGSGERRGGGP,3.02
